Patent US6858210B1, “Therapeutic and diagnostic domain 1 β2GPI polypeptides and methods of using same” (La Jolla Pharmaceutical Co., priority 1998, dated 2005)
Read-outs that look alike come from different tables or passages of the source.

B1: 1234-: recombinant β2GPI deletion mutant with domains 1, 2, 3, 4 (protein)
chain: GRTCPKPDDLPFSTVVPLKTFYEPGEEITYSCKPGYVSRGGMRKFICPLTGLWPINTLKCTPRVCPFAGILENGAVRYTTFEYPNTISFSCNTGFYLNGADSAKCTEEGKWSPELPVCAPIICPPPSIPTFATLRVYKPSAGNNSLYRDTAVFECLPQHAMFGNDTITCTTHGNWTKLPECREVKCPFPSRPDNGFVNYPAKPTLYYKDKATFGCHDGYSLDGPEEIECTKLGNWSAMPSCGHHHHHH
B2: --345: recombinant β2GPI deletion mutant with domains 3, 4, 5 (protein)
chain: GRIICPPPSIPTFATLRVYKPSAGNNSLYRDTAVFECLPQHAMFGNDTITCTTHGNWTKLPECREVKCPFPSRPDNGFVNYPAKPTLYYKDKATFGCHDGYSLDGPEEIECTKLGNWSAMPSCKASCKLPVKKATVVYQGERVKIQEKFKNGMLHGDKVSFFCKNKEKKCSYTEDAQCIDGTIEVPKCFKEHSSLAFWKTDASDVKPCGHHHHHH
B3: ---45: recombinant β2GPI deletion mutant with domains 4, 5 (protein)
chain: GREVKCPFPSRPDNGFVNYPAKPTLYYKDKATFGCHDGYSLDGPEEIECTKLGNWSAMPSCKASCKLPVKKATVVYQGERVKIQEKFKNGMLHGDKVSFFCKNKEKKCSYTEDAQCIDGTIEVPKCFKEHSSLAFWKTDASDVKPCGHHHHHH

How the values were obtained:
[1] = test system: affinity purified β2GPI-dependent antiphospholipid antibody; experiment: Direct binding ELISA, nickel chelate-coated wells charged with recombinant β2GPI proteins (no cardiolipin); design: species or system human; conditions: O.D. at 550 nm
Experimental: (§1) Nickel Chelate-coated microwell plates (NCP 010 00 Xenopore Corp. 374 Midland Ave. Saddle Brook, N.J. USA) were coated with 50 μl of serial dilutions of the various recombinant β2GPI, in PBS, at room temperature for 2 hours. The plates were washed three times with PBS and blocked with 75 μl of a 1% gelatin (Sigma #G-2500) in PBS for one hour room temperature. […] The plates were washed three times with PBS, 50 μl of alkaline phosphatase conjugated anti-immunoglobulin (anti-human IgG, gamma chain specific, Zymed #62-8422) or anti-rabbit IgG (Zymed #62-6122) diluted appropriately in 1% gelatin was added and incubated at 37° C. for one hour. The plates were washed three times with PBS, 50 μl of alkaline phosphatase PPMP chromogenic substrate solution was added and incubated for 30 minutes at room temperature. The optical density, at 550 nm, was determined by reading the plates in a microplate autoreader (Bio-Teck Instruments, model EL311).
(§2) Seven to nine different recombinant β2GPI mutant proteins were examined to determine if they could support the direct binding of affinity purified β2GPI-dependent antiphospholipid antibody preparations in the absence of anionic phospholipid. All recombinant mutant β2GPI were assayed with affinity purified β2GPI-dependent antiphospholipid antibody preparations from 11 different patients. Each mutant recombinant β2GPI protein was tested, in a dose dependent fashion and GST-6his was included as a negative control. The recombinant mutant β2GPI proteins were bound to nickel coated microtiter plates via their 6-his tail. All recombinant mutant β2GPI proteins tested bound rabbit anti-β2GPI showing that they were assessable by antibody (FIG. 5).

[2] = test system: affinity purified β2GPI-dependent antiphospholipid antibody; experiment: Competitive inhibition ELISA: recombinant β2GPI proteins compete for antibody binding to coated full length recombinant β2GPI; design: species or system human; conditions: for IC50: read-out: 50% (concentration to give 50% inhibition)
Experimental: Microtiter plates (MaxiSorp™, Nalge Nunc International, Denmark) were coated with 50 μl of full length recombinant β2GPI at 10 μg/ml in 0.1 M bicarbonate, pH 9.5, incubated overnight at 4° C., washed three times with 0.15 M PBS, pH 7.2, and blocked for one hour at room temperature with 75 μl of 2% Non-fat Dried Milk (Carnation, 2% NFDM). Test inhibitors were diluted in 2% NFDM and 25 μl of each dilution was added to coated wells. Affinity purified β2GPI-dependent antiphospholipid antibody was diluted in 2% NFDM and 25 μl, of a constant concentration, was added to the wells, including a group of wells that had no inhibitor, which acted as the positive controls. The contents of the wells were mixed and the plates were incubated at 37° C. for one hour. The plates were washed three times with PBS, 50 μl of alkaline phosphatase conjugated anti-human IgG, gamma chain specific, (Zymed #62-8422) diluted appropriately in 2% NFDM was added and incubated at 37° C. for one hour. The plates were washed three times with PBS, 50 μl of alkaline phosphatase PPMP chromogenic substrate solution was added and incubated for 30 minutes, at room temperature. The Optical Density, at 550 nm, was determined by reading the plates in a microplate autoreader (Bio-Teck Instruments, model EL3 11). The percent inhibition was determined by dividing the OD550 obtained in the presence of inhibitor by the mean OD550 obtained from the wells without inhibitor and then multiplying by 100 (more particularly, [mean A550 obtained from control wells without inhibitor less A550 of background] minus [A550 obtained in presence of inhibitor less A550 of background] divided by [mean A550 obtained from control wells without inhibitor less A550 of background] times 100).
Seven to nine different recombinant β2GPI mutant proteins were used to determine the antigenic specificity of affinity purified β2GPI-dependent antiphospholipid antibody preparations from 13 different patients. Each mutant recombinant β2GPI protein was tested, in a dose dependent fashion, for its ability to inhibit affinity purified β2GPI-dependent antiphospholipid antibody from binding to full length recombinant β2GPI. The following values were also observed for domain 1 only recombinant protein (1 - - - -; see Table 2 for designations): […]

rabbit anti-β2GPI = experiment: Direct binding ELISA, nickel chelate-coated wells, rabbit antibody; conditions: O.D. at 550 nm
Experimental: as §1, §2

Row | Molecule | Maximum O.D. ([1]; Ab 6203) | Maximum O.D. ([1]; Ab 6501) | Maximum O.D. ([1]; Ab 6626) | Maximum O.D. ([1]; Ab 6632) | Maximum O.D. ([1]; Ab 6641) | Maximum O.D. ([1]; Ab 6652) | Maximum O.D. ([1]; Ab 6701) | Maximum O.D. ([1]; Ab 7008) | Maximum O.D. ([1]; Ab 7015) | Maximum O.D. ([1]; Ab 7101) | Max (maximum inhibition observed at concentrations tested) ([2]; Ab 6203) [%] | IC50 ([2]; Ab 6203) [µM] | Max (maximum inhibition observed at concentrations tested) ([2]; Ab 6501) [%] | IC50 ([2]; Ab 6501) [µM] | Max (maximum inhibition observed at concentrations tested) ([2]; Ab 6509) [%] | IC50 ([2]; Ab 6509) [µM] | Max (maximum inhibition observed at concentrations tested) ([2]; Ab 6626) [%] | IC50 ([2]; Ab 6626) [µM] | Max (maximum inhibition observed at concentrations tested) ([2]; Ab 6632) [%] | IC50 ([2]; Ab 6632) [µM] | further results
1 | B1 | 0.668 | 0.628 | 0.563 | 0.003 | 0.145 | 0.135 | 0.715 | 0.149 | 0.454 | 0.843 | 30 | > 8 | 30 | > 8 | 80 | 3 | 40 | > 8 | 60 | 2 | Maximum O.D. ([1]; Ab 6644): 0.768; Max (maximum inhibition observed at concentrations tested) ([2]; Ab 6641): 60%; IC50 ([2]; Ab 6641): 2 µM; Max (maximum inhibition observed at concentrations tested) ([2]; Ab 6644): 50%; IC50 ([2]; Ab 6644): 8 µM; Max (maximum inhibition observed at concentrations tested) ([2]; Ab 6652): 100%; IC50 ([2]; Ab 6652): 0.5 µM; Max (maximum inhibition observed at concentrations tested) ([2]; Ab 6701): 30%; IC50 ([2]; Ab 6701): > 8 µM; Max (maximum inhibition observed at concentrations tested) ([2]; Ab 7008): 50%; IC50 ([2]; Ab 7008): > 8 µM; Max (maximum inhibition observed at concentrations tested) ([2]; Ab 7015): 50%; IC50 ([2]; Ab 7015): 8 µM; Max (maximum inhibition observed at concentrations tested) ([2]; Ab 7101): 20%; IC50 ([2]; Ab 7101): > 8 µM; Max (maximum inhibition observed at concentrations tested) ([2]; Ab 7104): 90%; IC50 ([2]; Ab 7104): 0.7 µM; Maximum O.D. (rabbit anti-β2GPI): 1.708
2 | B2 | 0.072 | 0.030 | 0.022 | 0.004 | 0.019 | 0.016 | 0.002 | 0.018 | 0.042 | 0.042 | 10 | > 50 | 15 | > 50 | 20 | > 15 | 20 | > 50 | 20 | > 50 | Maximum O.D. ([1]; Ab 6644): 0.048; Max (maximum inhibition observed at concentrations tested) ([2]; Ab 6641): 10%; IC50 ([2]; Ab 6641): > 15 µM; Max (maximum inhibition observed at concentrations tested) ([2]; Ab 6644): 10%; IC50 ([2]; Ab 6644): > 50 µM; Max (maximum inhibition observed at concentrations tested) ([2]; Ab 6652): 30%; IC50 ([2]; Ab 6652): > 15 µM; Max (maximum inhibition observed at concentrations tested) ([2]; Ab 6701): 20%; IC50 ([2]; Ab 6701): > 15 µM; Max (maximum inhibition observed at concentrations tested) ([2]; Ab 7008): 20%; IC50 ([2]; Ab 7008): > 50 µM; Max (maximum inhibition observed at concentrations tested) ([2]; Ab 7015): 10%; IC50 ([2]; Ab 7015): > 50 µM; Max (maximum inhibition observed at concentrations tested) ([2]; Ab 7101): 5%; IC50 ([2]; Ab 7101): > 50 µM; Max (maximum inhibition observed at concentrations tested) ([2]; Ab 7104): 20%; IC50 ([2]; Ab 7104): > 50 µM; Maximum O.D. (rabbit anti-β2GPI): 1.993
3 | B3 | 0.142 | 0.086 | 0.086 | 0.000 | 0.112 | 0.013 | 0.000 | 0.030 | 0.167 | 0.167 | 10 | > 40 | 15 | > 40 | 20 | > 5 | 15 | > 40 | 20 | > 40 | Max (maximum inhibition observed at concentrations tested) ([2]; Ab 6641): 20%; IC50 ([2]; Ab 6641): > 5 µM; Max (maximum inhibition observed at concentrations tested) ([2]; Ab 6644): 10%; IC50 ([2]; Ab 6644): > 40 µM; Max (maximum inhibition observed at concentrations tested) ([2]; Ab 6652): 20%; IC50 ([2]; Ab 6652): > 5 µM; Max (maximum inhibition observed at concentrations tested) ([2]; Ab 6701): 15%; IC50 ([2]; Ab 6701): > 5 µM; Max (maximum inhibition observed at concentrations tested) ([2]; Ab 7008): 20%; IC50 ([2]; Ab 7008): > 40 µM; Max (maximum inhibition observed at concentrations tested) ([2]; Ab 7015): 10%; IC50 ([2]; Ab 7015): > 40 µM; Max (maximum inhibition observed at concentrations tested) ([2]; Ab 7101): 5%; IC50 ([2]; Ab 7101): > 40 µM; Max (maximum inhibition observed at concentrations tested) ([2]; Ab 7104): 5%; IC50 ([2]; Ab 7104): > 40 µM; Maximum O.D. (rabbit anti-β2GPI): 1.941
